Results taken from PMC10322840.

Legend:
[1] = molecular target: Paracentrotus lividus RAF, 6 MYC tags (Paracentrotus lividus); assay: co-IP; lysates of co-transfected HEK293T cells (200 ul at 0.5 mg/ml); mouse anti-myc 9E10 overnight at 4 °C, Dynabeads Pan mouse IgG 2 h; five washes in 50 mM Tris HCl pH 7.5, 150 mM NaCl, 10% glycerol, 0.2% Triton X100, 1 mM EDTA; blots with rabbit anti-HA and anti-Myc
[2] = molecular target: Paracentrotus lividus RAF, 6 MYC tags; assay: co-immunoprecipitation (IP anti-Myc of Pl. RAF, blot quantified); conditions: parent: 1; read off a plot

Chain of Paracentrotus lividus RAF, 6 MYC tags (Paracentrotus lividus) (main, as listed by the source): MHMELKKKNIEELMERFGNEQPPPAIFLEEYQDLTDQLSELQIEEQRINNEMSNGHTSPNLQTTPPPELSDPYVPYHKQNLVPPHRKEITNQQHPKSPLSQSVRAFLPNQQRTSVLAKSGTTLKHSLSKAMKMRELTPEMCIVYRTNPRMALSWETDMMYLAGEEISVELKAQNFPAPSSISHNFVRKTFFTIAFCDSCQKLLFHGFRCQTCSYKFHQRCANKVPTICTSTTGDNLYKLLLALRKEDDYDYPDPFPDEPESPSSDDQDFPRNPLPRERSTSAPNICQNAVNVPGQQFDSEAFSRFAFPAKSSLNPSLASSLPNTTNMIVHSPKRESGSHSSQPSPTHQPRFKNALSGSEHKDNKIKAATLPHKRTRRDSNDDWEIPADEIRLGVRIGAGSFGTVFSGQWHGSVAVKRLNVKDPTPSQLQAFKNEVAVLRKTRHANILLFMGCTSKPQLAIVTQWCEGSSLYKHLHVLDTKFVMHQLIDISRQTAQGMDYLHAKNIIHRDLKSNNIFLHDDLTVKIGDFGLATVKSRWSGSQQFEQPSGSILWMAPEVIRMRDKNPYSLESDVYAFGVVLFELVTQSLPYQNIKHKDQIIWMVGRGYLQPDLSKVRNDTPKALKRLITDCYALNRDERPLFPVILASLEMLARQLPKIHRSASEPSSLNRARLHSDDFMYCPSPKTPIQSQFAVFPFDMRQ

Row | fold change of RAF co-immunoprecipitated, against wild-type KSR3 [1] | ratio to parent (arbitrary units) [2] | Substance
1 | 1.5 fold |  | Paracentrotus lividus KSR3 S361E (natural protein)
2 |  | 0.46 | Paracentrotus lividus KSR3, wild type, 3HA-tagged S361E; R364H
